Values quoted from earlier work as cited in article PMC10302803.
pKd: −log10 of the molar value.

Biological target: VEGF-P3CYC
Sequence (main, as listed by the source): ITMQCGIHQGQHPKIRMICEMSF

pKd: 7.96
Substance: VEGFR2 (from UniProt P35968)
